T1: MGME1 (Homo sapiens, UniProt Q9BQP7 21-344)
T1 sequence: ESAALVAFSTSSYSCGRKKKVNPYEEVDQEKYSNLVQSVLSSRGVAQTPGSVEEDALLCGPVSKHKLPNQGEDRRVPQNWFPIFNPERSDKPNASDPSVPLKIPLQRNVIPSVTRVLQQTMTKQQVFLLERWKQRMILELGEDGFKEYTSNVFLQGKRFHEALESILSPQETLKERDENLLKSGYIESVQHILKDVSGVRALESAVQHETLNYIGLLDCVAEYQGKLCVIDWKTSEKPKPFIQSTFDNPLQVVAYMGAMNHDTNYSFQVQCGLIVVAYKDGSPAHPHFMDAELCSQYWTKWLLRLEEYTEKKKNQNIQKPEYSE


Experiments:
MGME1 [1] = molecular target: T1, MGME1; experiment: fluorescence polarization; 10 mM EDTA; FP: 2 nM FAM-ssDNA, 20 mM Hepes pH 8.0 (at 37 C), 100 mM NaCl, 0.1 mg/ml BSA, 1 mM DTT, 10 mM EDTA, mixed at room temperature, 15 min; EMSA: 1 uM ssDNA, 20 mM Hepes pH 8.0, 100 mM NaCl, 1 mM DTT, 10 mM EDTA, room temperature 15 min, gel 0.35x TBE at 4 C; conditions: protein: recombinant, tags: His-SUMO tag removed by Ulp1, single strand
MGME1 [2] = molecular target: T1, MGME1; experiment: competition (fluorescence polarization); 10 mM EDTA; 140 nM MGME1 with 2 nM T20(5') preformed; FP: 2 nM FAM-ssDNA, 20 mM Hepes pH 8.0 (at 37 C), 100 mM NaCl, 0.1 mg/ml BSA, 1 mM DTT, 10 mM EDTA, mixed at room temperature, 15 min; EMSA: 1 uM ssDNA, 20 mM Hepes pH 8.0, 100 mM NaCl, 1 mM DTT, 10 mM EDTA, room temperature 15 min, gel 0.35x TBE at 4 C; conditions: protein: recombinant; tags: His-SUMO tag removed by Ulp1; single strand

Row | Binder | Kd (MGME1 [1]; label: 3'-6FAM) | Kd (MGME1 [1]; label: 5'-6FAM) | also measured
1 | TTTTTTTTTTTTTTTTTTTT (ssDNA, 5'-phosphate) [T20(3')-5'p] | 180 ± 5 nM | – | –
2 | TTTTTTTTTTTTTTTTTTTT (ssDNA) [T20(3')] | 330 ± 83 nM | – | –
3 | TTTTTTTTTTTTTTTTTTTT (ssDNA) [T20 (unlabeled)] | – | – | Kd (MGME1 [2]): 250 ± 33 nM
4 | TTTTTTTTTT (ssDNA) [T10(3')] | 7500 ± 890 nM | – | –
5 | TTTTTTTTTT (ssDNA, 5'-phosphate-tetrahydrofuran (abasic) before T10) [T10(3')-5'dSp] | 340 ± 24 nM | – | –
6 | AAAAAAAAAAAAAAAAAAAA (ssDNA, 5' phosphate linkage of the FAM label) [A20(5')] | – | 1300 ± 170 nM | –
7 | TTTTTTTTTT (ssDNA, 5'-phosphate) [T10(3')-5'p] | 1600 ± 75 nM | – | –
8 | TTTTTTTTTTTTTTTTTTTT (ssDNA, 5' phosphate linkage of the FAM label) [T20(5')] | – | 240 ± 36 nM | –
9 | TTTTTTTTTT (ssDNA, 5' phosphate linkage of the FAM label) [T10(5')] | – | 600 ± 150 nM | –

From article PMC9460513, “The 5′-phosphate enhances the DNA-binding and exonuclease activities of human mitochondrial genome maintenance exonuclease 1 (MGME1)”
